Molecular target: T1, LidA(FL), untagged (Legionella pneumophila strain Corby)
T1 chain: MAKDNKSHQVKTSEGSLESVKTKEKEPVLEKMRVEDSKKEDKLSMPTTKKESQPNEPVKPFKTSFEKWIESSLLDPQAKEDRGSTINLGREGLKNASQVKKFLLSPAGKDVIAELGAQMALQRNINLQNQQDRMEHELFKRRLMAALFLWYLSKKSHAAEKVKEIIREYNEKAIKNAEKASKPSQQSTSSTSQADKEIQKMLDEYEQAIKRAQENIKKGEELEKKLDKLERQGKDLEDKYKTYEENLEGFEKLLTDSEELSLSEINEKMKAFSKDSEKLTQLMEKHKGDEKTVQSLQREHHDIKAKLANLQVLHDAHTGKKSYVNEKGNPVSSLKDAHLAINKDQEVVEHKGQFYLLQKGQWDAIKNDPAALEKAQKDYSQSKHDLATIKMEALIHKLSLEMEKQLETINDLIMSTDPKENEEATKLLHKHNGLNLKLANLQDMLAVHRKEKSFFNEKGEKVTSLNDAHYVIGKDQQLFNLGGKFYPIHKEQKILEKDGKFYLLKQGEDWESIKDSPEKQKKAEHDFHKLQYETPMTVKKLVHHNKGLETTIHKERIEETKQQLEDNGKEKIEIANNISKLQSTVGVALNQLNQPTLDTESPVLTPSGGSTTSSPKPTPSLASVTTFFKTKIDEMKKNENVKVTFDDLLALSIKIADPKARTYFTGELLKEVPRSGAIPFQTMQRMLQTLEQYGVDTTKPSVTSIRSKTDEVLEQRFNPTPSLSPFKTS
Experiment: ITC

B1: Rab22 (FL) (natural protein)
chain: MALRELKVCLLGDTGVGKSSIVWRFVEDSFDPNINPTIGASFMTKTVQYQNELHKFLIWDTAGQERFRALAPMYYRGSAAAIIVYDITKEETFSTLKNWVKELRQHGPPNIVVAIAGNKCDLIDVREVMERDAKDYADSIHAIFVETSAKNAININELFIEISRRIPSTDANLPSGGKGFKLRRQPSEPKRSCC
- Kd: 200 nM
